Results published in the supplement of paper PMC11316812.
± gives the standard deviation of the averaged measurements.

Tests used:
hTERT-HMEC = experiment: percentage of EdU-negative (G0-arrested) nuclei per well, 72 h; higher = more G0 arrest; settings: reference: sequence is the full UniProt precursor, the tested protein was the secreted form or ectodomain
MCF7 = experiment: as above; settings: reference: sequence is the full UniProt precursor, the tested protein was the secreted form or ectodomain
[1] = protein concentration 0.0225 µM
[2] = protein concentration 0.01125 µM
[3] = protein concentration 0.1125 µM
[4] = protein concentration 0.02175 µM
[5] = protein concentration 0.2175 µM
[6] = protein concentration 0.00839 µM
[7] = protein concentration 0.0839 µM
[8] = protein concentration 0.03125 µM
[9] = protein concentration 0.3125 µM
[10] = protein concentration 0.00525 µM
[11] = protein concentration 0.0525 µM
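Also: secreted proteins added to cultured cells, EdU pulse at the end, nuclei found by Hoechst imaging, EdU status from nuclear versus surrounding ring intensity ratio, PBS as neutral control.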

MRWILFIGALIGSSICGQEKFFGDQVLRINVRNGDEISKLSQLVNSNNLKLNFWKSPSSFNRPVDVLVPSVSLQAFKSFLRSQGLEYAVTIEDLQALLDNEDDEMQHNEGQERSSNNFNYGAYHSLEAIYHEMDNIAADFPDLARRVKIGHSFENRPMYVLKFSTGKGVRRPAVWLNAGIHSREWISQATAIWTARKIVSDYQRDPAITSILEKMDIFLLPVANPDGYVYTQTQNRLWRKTRSRNPGSSCIGADPNRNWNASFAGKGASDNPCSEVYHGPHANSEVEVKSVVDFIQKHGNFKGFIDLHSYSQLLMYPYGYSVKKAPDAEELDKVARLAAKALASVSGTEYQVGPTCTTVYPASGSSIDWAYDNGIKFAFTFELRDTGTYGFLLPANQIIPTAEETWLGLKTIMEHVRDNLY [Q9UI42]
percentage of EdU-negative (hTERT-HMEC; [1]): 5.99 ± 0.71% | percentage of EdU-negative (hTERT-HMEC; protein concentration 0.225 µM): 5.12 ± 0.8% | percentage of EdU-negative (MCF7; [1]): 26.3 ± 1.7% | percentage of EdU-negative (MCF7; protein concentration 0.225 µM): 29.1 ± 1.7%

MIFLTALPLFWIMISASRGGHWGAWMPSSISAFEGTCVSIPCRFDFPDELRPAVVHGVWYFNSPYPKNYPPVVFKSRTQVVHESFQGRSRLLGDLGLRNCTLLLSNVSPELGGKYYFRGDLGGYNQYTFSEHSVLDIVNTPNIVVPPEVVAGTEVEVSCMVPDNCPELRPELSWLGHEGLGEPAVLGRLREDEGTWVQVSLLHFVPTREANGHRLGCQASFPNTTLQFEGYASMDVKYPPVIVEMNSSVEAIEGSHVSLLCGADSNPPPLLTWMRDGTVLREAVAESLLLELEEVTPAEDGVYACLAENAYGQDNRTVGLSVMYAPWKPTVNGTMVAVEGETVSILCSTQSNPDPILTIFKEKQILSTVIYESELQLELPAVSPEDDGEYWCVAENQYGQRATAFNLSVEFAPVLLLESHCAAARDTVQCLCVVKSNPEPSVAFELPSRNVTVNESEREFVYSERSGLVLTSILTLRGQAQAPPRVICTARNLYGAKSLELPFQGAHRLMWAKIGPVGAVVAFAILIAIVCYITQTRRKKNVTESPSFSAGDNPPVLFSSDFRISGAPEKYESERRLGSERRLLGLRGEPPELDLSYSHSDLGKRPTKDSYTLTEELAEYAEIRVK
percentage of EdU-negative (hTERT-HMEC; [2]): 5.66 ± 0.36% | percentage of EdU-negative (hTERT-HMEC; [3]): 6.55 ± 0.84% | percentage of EdU-negative (MCF7; [2]): 28.5 ± 0.33% | percentage of EdU-negative (MCF7; [3]): 28.73 ± 0.11%

MALTGYSWLLLSATFLNVGAEISITLEPAQPSEGDNVTLVVHGLSGELLAYSWYAGPTLSVSYLVASYIVSTGDETPGPAHTGREAVRPDGSLDIQGILPRHSGTYILQTFNRQLQTEVGYGHVQVHEILAQPTVLANSTALVERRDTLRLMCSSPSPTAEVRWFFNGGALPVALRLGLSPDGRVLARHGIRREEAGAYQCEVWNPVSVSRSEPINLTVYFGPERVAILQDSTTRTGCTIKVDFNTSLTLWCVSRSCPEPEYVWTFNGQALKNGQDHLNISSMTAAQEGTYTCIAKNTKTLLSGSASVVVKLSAAAVATMIVPVPTKPTEGQDVTLTVQGYPKDLLVYAWYRGPASEPNRLLSQLPSGTWIAGPAHTGREVGFPNCSLLVQKLNLTDTGRYTLKTVTVQGKTETLEVELQVAPLG [Q2WEN9]
percentage of EdU-negative (hTERT-HMEC; [4]): 5.23 ± 0.14% | percentage of EdU-negative (hTERT-HMEC; [5]): 7.63 ± 2.6% | percentage of EdU-negative (MCF7; [4]): 26.4 ± 2% | percentage of EdU-negative (MCF7; [5]): 27.5 ± 2.3%

MAGLTAAAPRPGVLLLLLSILHPSRPGGVPGAIPGGVPGGVFYPGAGLGALGGGALGPGGKPLKPVPGGLAGAGLGAGLGAFPAVTFPGALVPGGVADAAAAYKAAKAGAGLGGVPGVGGLGVSAGAVVPQPGAGVKPGKVPGVGLPGVYPGGVLPGARFPGVGVLPGVPTGAGVKPKAPGVGGAFAGIPGVGPFGGPQPGVPLGYPIKAPKLPGGYGLPYTTGKLPYGYGPGGVAGAAGKAGYPTGTGVGPQAAAAAAAKAAAKFGAGAAGVLPGVGGAGVPGVPGAIPGIGGIAGVGTPAAAAAAAAAAKAAKYGAAAGLVPGGPGFGPGVVGVPGAGVPGVGVPGAGIPVVPGAGIPGAAVPGVVSPEAAAKAAAKAAKYGARPGVGVGGIPTYGVGAGGFPGFGVGVGGIPGVAGVPGVGGVPGVGGVPGVGISPEAQAAAAAKAAKYGAAGAGVLGGLVPGAPGAVPGVPGTGGVPGVGTPAAAAAKAAAKAAQFGLVPGVGVAPGVGVAPGVGVAPGVGLAPGVGVAPGVGVAPGVGVAPGIGPGGVAAAAKSAAKVAAKAQLRAAAGLGAGIPGLGVGVGVPGLGVGAGVPGLGVGAGVPGFGAGADEGVRRSLSPELREGDPSSSQHLPSTPSSPRVPGALAAAKAAKYGAAVPGVLGGLGALGGVGIPGGVVGAGPAAAAAAAKAAAKAAQFGLVGAAGLGGLGVGGLGVPGVGGLGGIPPAAAAKAAKYGAAGLGGVLGGAGQFPLGGVAARPGFGLSPIFPGGACLGKACGRKRK [F8WAH6]
percentage of EdU-negative (hTERT-HMEC; [6]): 4.54 ± 0.69% | percentage of EdU-negative (hTERT-HMEC; [7]): 6.95 ± 0.57% | percentage of EdU-negative (MCF7; [6]): 26.3 ± 0.31% | percentage of EdU-negative (MCF7; [7]): 25.1 ± 0.57%

MVLAAPLLLGFLLLALELRPRGEAAEGPAAAAAAAAAAAAAGVGGERSSRPAPSVAPEPDGCPVCVWRQHSRELRLESIKSQILSKLRLKEAPNISREVVKQLLPKAPPLQQILDLHDFQGDALQPEDFLEEDEYHATTETVISMAQETDPAVQTDGSPLCCHFHFSPKVMFTKVLKAQLWVYLRPVPRPATVYLQILRLKPLTGEGTAGGGGGGRRHIRIRSLKIELHSRSGHWQSIDFKQVLHSWFRQPQSNWGIEINAFDPSGTDLAVTSLGPGAEGLHPFMELRVLENTKRSRRNLGLDCDEHSSESRCCRYPLTVDFEAFGWDWIIAPKRYKANYCSGQCEYMFMQKYPHTHLVQQANPRGSAGPCCTPTKMSPINMLYFNDKQQIIYGKIPGMVVDRCGCS
percentage of EdU-negative (hTERT-HMEC; [8]): 4.52 ± 0.24% | percentage of EdU-negative (hTERT-HMEC; [9]): 5.2 ± 0.9% | percentage of EdU-negative (MCF7; [8]): 24.2 ± 2.7% | percentage of EdU-negative (MCF7; [9]): 26.2 ± 3.2%

Q9BZZ2
percentage of EdU-negative (hTERT-HMEC; [10]): 4.58 ± 0.46% | percentage of EdU-negative (hTERT-HMEC; [11]): 21.5 ± 2.5% | percentage of EdU-negative (MCF7; [10]): 26.9 ± 2.3% | percentage of EdU-negative (MCF7; [11]): 31.1 ± 2.4%
